Laboratory results: article PMC6939650 (Molecules and Cells, 2019)

Target: the molecule itself
Experiment: SEC-MALS

B1: MexT regulatory domain (domain or fragment, Pseudomonas aeruginosa, UniProt Q9I0Z0 95-304, looked up)
chain: PATSTAVFRIGLSDDVEFGLLPPLLRRLRAEAPGIVLVVRRANYLLMPNLLASGEISVGVSYTDELPANAKRKTVRRSKPKILRADSAPGQLTLDDYCARPHALVSFAGDLSGFVDEELEKFGRKRKVVLAVPQFNGLGTLLAGTDIIATVPDYAAQALIAAGGLRAEDPPFETRAFELSMAWRGAQDNDPAERWLRSRISMFIGDPDSL
In the case of B1, the “stoichiometry N” value is reported as 2.
